Values quoted from earlier work, collected in publication PMC9157009, “Protein proximity networks and functional evaluation of the casein kinase 1 gamma family reveal unique roles for CK1γ3 in WNT signaling” (The Journal of Biological Chemistry, 2022).

Test system: β-catenin-dependent transcription
Settings: siRNA screen, BAR firefly luciferase reporter, ref Biechele et al

B1: MAGI1 (protein, UniProt Q96QZ7 1-1491, looked up)
Membrane-associated guanylate …: MSKVIQKKNHWTSRVHECTVKRGPQGELGVTVLGGAEHGEFPYVGAVAAVEAAGLPGGGEGPRLGEGELLLEVQGVRVSGLPRYDVLGVIDSCKEAVTFKAVRQGGRLNKDLRHFLNQRFQKGSPDHELQQTIRDNLYRHAVPCTTRSPREGEVPGVDYNFLTVKEFLDLEQSGTLLEVGTYEGNYYGTPKPPSQPVSGKVITTDALHSLQSGSKQSTPKRTKSYNDMQNAGIVHAENEEEDDVPEMNSSFTADSGEQEEHTLQETALPPVNSSIIAAPITDPSQKFPQYLPLSAEDNLGPLPENWEMAYTENGEVYFIDHNTKTTSWLDPRCLNKQQKPLEECEDDEGVHTEELDSELELPAGWEKIEDPVYGIYYVDHINRKTQYENPVLEAKRKKQLEQQQQQQQQQQQQQQQQQQQQTEEWTEDHSALVPPVIPNHPPSNPEPAREVPLQGKPFFTRNPSELKGKFIHTKLRKSSRGFGFTVVGGDEPDEFLQIKSLVLDGPAALDGKMETGDVIVSVNDTCVLGHTHAQVVKIFQSIPIGASVDLELCRGYPLPFDPDDPNTSLVTSVAILDKEPIIVNGQETYDSPASHSSKTGKVNGMKDARPSSPADVASNSSHGYPNDTVSLASSIATQPELITVHIVKGPMGFGFTIADSPGGGGQRVKQIVDSPRCRGLKEGDLIVEVNKKNVQALTHNQVVDMLVECPKGSEVTLLVQRGGLPVPKKSPKSQPLERKDSQNSSQHSVSSHRSLHTASPSHSTQVLPEFPPAEAQAPDQTDSSGQKKPDPFKIWAQSRSMYENRPMSPSPASGLSKGEREREINSTNFGECPIPDYQEQDIFLWRKETGFGFRILGGNEPGEPIYIGHIVPLGAADTDGRLRSGDELICVDGTPVIGKSHQLVVQLMQQAAKQGHVNLTVRRKVVFAVPKTENEVPSPASSHHSSNQPASLTEEKRTPQGSQNSLNTVSSGSGSTSGIGSGGGGGSGVVSTVVQPYDVEIRRGENEGFGFVIVSSVSRPEAGTTFAGNACVAMPHKIGRIIEGSPADRCGKLKVGDRILAVNGCSITNKSHSDIVNLIKEAGNTVTLRIIPGDESSNATLLTNAEKIATITTTHTPSQQGTQETRNTTKPKQESQFEFKAPQATQEQDFYTVELERGAKGFGFSLRGGREYNMDLYVLRLAEDGPAERCGKMRIGDEILEINGETTKNMKHSRAIELIKNGGRRVRLFLKRGDGSVPEYDPSSDRHGPATGPQGVPEVRAGPDRRQHPSLESSYPPDLHKSSPHGEKRAHARDPKGSREYSRQPNEHHTWNGTSRKPDSGACRPKDRAPEGRRDAQAERAAAANGPKRRSPEKRREGTRSADNTLERREKHEKRRDVSPERRRERSPTRRRDGSPSRRRRSLERLLEQRRSPERRRGGSPERRAKSTDRRRARSPERRRERSLDKRNREDRASHREREEANLKQDAGRSSRHPPEQRRRPYKECSTDLSI
In the case of B1, the “Fold over control siRNA” value (fold over control siRNA) is listed as 3.957 and the “Average BAR firefly Luciferase (Raw)” value (raw signal per siRNA target) is listed as 104670.
